Assay results from the supplement of paper PMC9732359.
± gives the uncertainty stated by the source.

Assay: protein stability index of a GFP-peptide fusion (yeast GPS) (PSI 1-4); higher = more stable; sorted into four equal gates, so the index is relative within each strain
How it was run: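 Yeast carrying a pooled library were grown to mid-log phase in leucine-free medium. Each library plasmid expresses Cherry and has a tiled 17-residue yeast protein peptide fused downstream of GFP. Cells were sorted into four equal gates by GFP/Cherry ratio, and plasmids from each gate were PCR-amplified, Illumina-sequenced and assigned to strains by barcode. Summing, across gates, the read frequency times the gate number gave each peptide's protein stability index.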

Sequence | protein stability index (doa10∆) | protein stability index (pdr5∆) | protein stability index (san1∆) | protein stability index (ubr1∆)
AAAAVCEKWAASSWAKK [RPL14A] | 2.52 ± 0.052 | 3.08 ± 0.089 | 2.56 ± 0.056 | 2.68 ± 0.058
AAAEIADEPVKASLLLH [FAS2] | 3.1 ± 0.18 | 3.01 ± 0.24 | 2.75 ± 0.19 | 1.17 ± 0.21
AAFEKRYRVDLLNTDHT [RPO21] | 3.11 ± 0.076 | 3 ± 0.059 | 2.89 ± 0.058 | 2.88 ± 0.077
AAGAGAAAGAAMIDAGA [FAS2] | 2.84 ± 0.15 | 2.98 ± 0.12 |  | 2.99 ± 0.12
AAGKRISHIEKRIESLQ [SMC1] | 3.09 ± 0.099 | 3.07 ± 0.096 | 2.93 ± 0.073 | 3.08 ± 0.095
AAGNASSLPPGEILLPD [SNF5] | 3.15 ± 0.077 | 3.2 ± 0.063 | 3.1 ± 0.06 | 3.3 ± 0.053
AAIRQPTRYVLIRNVGT [POP1] | 1.64 ± 0.073 | 2.07 ± 0.083 | 1.77 ± 0.11 | 1.31 ± 0.053
AALRTVKSLVDNMITGV [RPL9A] | 2.5 ± 0.091 | 3.17 ± 0.076 | 2.99 ± 0.071 | 3.03 ± 0.075
AAPKKTRKAVRPQKLRA [RPL6B] | 2.64 ± 0.11 | 2.61 ± 0.29 | 2.8 ± 0.16 | 
AASWYGSFNEMKRNCGQ [RMP1] | 2.92 ± 0.051 | 3.3 ± 0.054 | 3.06 ± 0.052 | 3.21 ± 0.045
AATIGANFIFSPASGIV [RPT4] | 2.56 ± 0.061 | 2.66 ± 0.055 | 1.84 ± 0.1 | 2.18 ± 0.083
ADNGEEYLTLNDFNDLN [MED2] | 2.96 ± 0.23 | 3.3 ± 0.14 | 3.55 ± 0.12 | 3.27 ± 0.082
ADSAVNRQTLMFTATMT [PRP28] | 2.6 ± 0.056 | 2.72 ± 0.049 | 2.58 ± 0.046 | 2.65 ± 0.049
ADTKAPTFTFGSSALAD [YLR335W/NUP2] | 3.25 ± 0.069 | 3.01 ± 0.053 | 3.08 ± 0.048 | 3.11 ± 0.033
AEDLTIAAKTHILRISF [SIN4] | 2.36 ± 0.12 | 3.02 ± 0.09 | 2.85 ± 0.085 | 
AEEALEPSYIFEYLATV [PRE4] | 2.66 ± 0.059 | 2.44 ± 0.067 | 2.54 ± 0.061 | 2.73 ± 0.045
AEEQTKLQSQSLHTKNV [YLR018C/POM34] | 3.29 ± 0.058 | 3.44 ± 0.063 | 3.1 ± 0.071 | 3.13 ± 0.049
AEEVRNFALTTLIDLVK [ECM29] | 2.59 ± 0.086 | 1.9 ± 0.075 | 1.78 ± 0.073 | 2 ± 0.059
AEFKKRKIEAETRNGKV [YCS4] | 2.82 ± 0.1 | 3.18 ± 0.072 | 3.18 ± 0.1 | 3.13 ± 0.094
AEHSQNKIDQSLQYIER [YJL041W/NSP1] | 3.17 ± 0.069 | 3.16 ± 0.043 | 3.21 ± 0.049 | 3.04 ± 0.048
AELNLPTVDEQRQYKVQ [SNF11] | 3.22 ± 0.081 | 3.3 ± 0.08 | 3.12 ± 0.092 | 3.31 ± 0.067
AELQSNLQVELLSEHDD [YGL100W/SEH1] | 2.61 ± 0.083 | 2.95 ± 0.065 | 2.62 ± 0.07 | 2.87 ± 0.061
AELVQKYIGEGSRMVRE [RPT6] | 2.74 ± 0.088 | 2.69 ± 0.075 | 2.65 ± 0.075 | 2.33 ± 0.11
AENDVIEATDLGNIASS [BRR2] | 3.05 ± 0.075 | 3.17 ± 0.086 | 3.19 ± 0.064 | 3.27 ± 0.056

Sequence | protein stability index (doa10∆) | protein stability index (pdr5∆) | protein stability index (san1∆) | protein stability index (ubr1∆)
AFAGSKNDEVLGLLLPI [RPN1] |  | 3.2 ± 0.14 | 3.05 ± 0.17 | 3.19 ± 0.13
AFDVDRAKSCGVDAMSV [RPL1A] | 2.79 ± 0.092 | 2.73 ± 0.094 | 2.76 ± 0.091 | 2.71 ± 0.055
AFETHYRRLFAKRLIHG [CDC53] | 2.46 ± 0.076 | 2.54 ± 0.071 | 2.8 ± 0.09 | 2.89 ± 0.071
AFFREKGLVSQQLDSFN [RPB2] | 3.11 ± 0.13 | 3.17 ± 0.19 | 2.96 ± 0.1 | 2.97 ± 0.087
AFGSSATDISGELRDYI [YJR042W/NUP85] | 3.26 ± 0.14 | 3.54 ± 0.13 | 2.81 ± 0.11 | 3.28 ± 0.083
AFRTLRLARSEKKFRGI [RPL13A] | 3.4 ± 0.24 | 3.49 ± 0.15 |  | 3.3 ± 0.084
AFSFGAKPDEKKNDEVS [YJL041W/NSP1] | 3.22 ± 0.16 | 3.19 ± 0.15 |  | 3.26 ± 0.17
AFVKQKNDSLEKTINDL [YIL149C/MLP2] | 3.1 ± 0.11 | 3.19 ± 0.11 | 3.02 ± 0.14 | 3.11 ± 0.12
AFYQKGNKLVELMRIIS [SMC1] | 1.59 ± 0.27 | 1.15 ± 0.19 |  | 1.38 ± 0.25
AGEFGLKNKKEIYRISF [RPS9A] | 2.58 ± 0.065 | 2.95 ± 0.089 | 3.08 ± 0.14 | 2.77 ± 0.066
AGFDPRDDEPKLYQTEP [PRE6] | 3.24 ± 0.084 | 3.03 ± 0.12 | 3.1 ± 0.05 | 3.24 ± 0.07
AGIVPVSANTPKSLNSN [SWI1] | 3.07 ± 0.059 | 3.04 ± 0.066 | 3.04 ± 0.048 | 3.22 ± 0.043
AGKWFDPVLDWRKSDRE [SIR4] | 3.17 ± 0.088 | 3.44 ± 0.087 | 2.71 ± 0.14 | 3.18 ± 0.066
AGNKVGQSEASLLNLLN [RPP0] | 3.03 ± 0.12 | 2.25 ± 0.095 | 2.67 ± 0.1 | 2.95 ± 0.12
AGVEDVYTQSNGKTRTL [RPS2] | 2.76 ± 0.11 | 3.21 ± 0.084 | 3.28 ± 0.066 | 3.48 ± 0.057
AHEIIKREEKAMTIYWD [CDC53] | 2.03 ± 0.087 | 2.18 ± 0.064 |  | 2.2 ± 0.05
AHNKPSLFSKIKTFFTQ [YAR002W/NUP60] | 2.37 ± 0.079 | 2.85 ± 0.076 | 2.66 ± 0.064 | 2.73 ± 0.065
AHVNKVTEETTKQIQSV [SIR4] | 2.81 ± 0.095 | 2.89 ± 0.078 | 2.98 ± 0.041 | 2.53 ± 0.061
AIIRLHPSIYTQVFNIL [POP1] | 2.02 ± 0.051 | 1.22 ± 0.047 | 1.2 ± 0.09 | 1.22 ± 0.036
AIMSKSSLEELLLKDQQ [ECM29] | 2.83 ± 0.09 | 2.93 ± 0.073 | 2.83 ± 0.1 | 2.98 ± 0.05
AINPGRVAASFSQEALQ [FAS1] | 2.05 ± 0.15 | 2.53 ± 0.15 | 2.63 ± 0.13 | 1.98 ± 0.098
AINVFPEGYKAKSISTS [RPO31] | 2.03 ± 0.05 | 1.8 ± 0.057 | 2.27 ± 0.07 | 2.31 ± 0.059
AIPNPEDVVAISSRTYG [RPS0B] | 3.33 ± 0.11 | 3.07 ± 0.055 | 2.99 ± 0.079 | 3.09 ± 0.047
AKAKRRHTTGTGRMRYL [RPL37A] | 3.14 ± 0.14 | 3.22 ± 0.083 | 2.99 ± 0.16 | 3.62 ± 0.16
